Experimental findings from patent US20050227306 are described below.

Data set [1] has as its system His6-tetraCys-X-MBP protease substrate 21-F [MBP: P0AEX9].
Data set [2] deals with His6-tetraCys-X-MBP protease substrate 22-F [MBP: P0AEX9].
Data set [3] concerns His6-tetraCys-X-MBP protease substrate 23-F [MBP: P0AEX9].
In data set [4] the test system is His6-tetraCys-X-MBP protease substrate 24-F [MBP: P0AEX9].
In data set [5] the test system is His6-tetraCys-X-MBP protease substrate 25-F [MBP: P0AEX9].
In data set [6] the test system is His6-tetraCys-X-MBP protease substrate 26-F [MBP: P0AEX9].

Turning to Enterokinase, the relative rate of reaction (initial proteolysis rate by fluorescence anisotropy, normalised to the cognate substrate) (relative rate) in data set [1] is 0.5; in data set [2], 1.3; in data set [3] it was 1; in data set [4] it was 0.2; in data set [6] it was 1. Further, the “specific reaction rate (per supplier's unit of enzyme)” value in data set [3] was “enterokinase, 0.130±0.007”. Moreover, the “relative rate of reaction (initial proteolysis rate by fluorescence anisotropy, normalised to the cognate substrate)” value in data set [5] was “n.d. (not detected)”.
As for Factor Xa, the “SDS-PAGE with Coomassie staining after overnight incubation” value was “formation of a small amount of a small molecular-weight band” in data set [1]; “little or no intact fusion protein was detected after an overnight incubation” in data set [2]; “formation of a small amount of a small molecular-weight band” in data set [3]; “little or no intact fusion protein was detected after an overnight incubation” in data set [4]; “formation of a small amount of a small molecular-weight band” in data set [5]. The relative rate of reaction (initial proteolysis rate by fluorescence anisotropy, normalised to the cognate substrate) (relative rate) in data set [1] was determined as 0.04; in data set [2], 0.5; in data set [3] it was 0.01; in data set [4], 1; in data set [5], 0.05; in data set [6], 0. The “specific reaction rate (per supplier's unit of enzyme)” value in data set [4] is reported as “Factor Xa, 0.37±0.03”.
As for Thrombin, the relative rate of reaction (initial proteolysis rate by fluorescence anisotropy, normalised to the cognate substrate) (relative rate) is 0 in data set [1]; 0.4 in data set [2]; -0.02 in data set [3]; 0 in data set [4]; 1 in data set [5]; 0 in data set [6]. In addition, the “specific reaction rate (per supplier's unit of enzyme)” value in data set [5] is “thrombin, 0.20±0.02”. In data set [5], the “specific reaction rate (slope of initial proteolysis rate versus protease concentration)” value is given as “thrombin; 240±20”.
Consider Trypsin, for which the relative rate of reaction (initial proteolysis rate by fluorescence anisotropy, normalised to the cognate substrate) (relative rate) in data set [1] was 0.3; in data set [2] it was 1; in data set [3], 0.1; in data set [4], 0.4; in data set [5], 0.5. Besides, in data set [2], the “specific reaction rate (slope of initial proteolysis rate versus protease concentration)” value is listed as “trypsin; 760±60”. Also, the “relative rate of reaction (initial proteolysis rate by fluorescence anisotropy, normalised to the cognate substrate)” value in data set [6] was “n.d. (not detected)”.
